Data from article doi:10.1101/767665.
Like-named read-outs stand apart in the source and are kept apart here.

Experiments:
[1] = molecular target: heliorhodopsin 48C12 (actinobacterium (fosmid from freshwater lake Kinneret)); assay: crystal structure
[2] = molecular target: heliorhodopsin 48C12 (actinobacterium (fosmid from freshwater lake Kinneret)); assay: crystal structure; remark: listed apart in the source

Substance: heliorhodopsin 48C12 (from UniProt A0A2R4S913 1-256) (natural protein)
- stoichiometry N [1]: 2
- stoichiometry N [2]: 2
